Substrate in data set [1]: O=C(O)O
In words: purified protein. The settings on record: YRDC alone, Tricine-NaOH pH 8.5, 10 mM MgCl2, ATP, L-Thr, 37 °C, bicarbonate 10-80 mM.

Substrate in data set [2]: Nc1ncnc2c1ncn2[C@@H]1O[C@H](COP(=O)(O)OP(=O)(O)OP(=O)(O)O)[C@@H](O)[C@H]1O
In words: purified protein. The format is biochemical, Homo sapiens. As to conditions: YRDC alone, Tricine-NaOH pH 8.5, 10 mM MgCl2, [14C]L-Thr, NaHCO3, 37 °C, ATP 0.1-0.8 mM.

B1: YRDC (Homo sapiens) (protein)
chain: SVGLSEGPAGSRSGRLFRPPSPAPAAPGARLLRLPGSGAVQAASPERAGWTEALRAAVAELRAGAVVAVPTDTLYGLACAASCSAALRAVYRLKGRSEAKPLAVCLGRVADVYRYCRVRVPEGLLKDLLPGPVTLVMERSEELNKDLNPFTPLVGIRIPDHAFMQDLAQMFEGPLALTSANLSSQASSLNVEEFQDLWPQLSLVIDGGQIGDGQSPECRLGSTVVDLSVPGKFGIIRPGCALESTTAILQQKYGLLPSHASYL
notes: recombinant from E. coli Rosetta(DE3), His6-SUMO tag removed
Regarding B1, the figures for the Km in data set [1] and in data set [2] were 13 mM and 0.17 ± 0.22 mM, respectively. In data set [2], the kcat entry was “(3.9 ± 2.23) × 10^-2 s^-1”.

For the origin of these results see publication PMC5951830, “CO2-sensitive tRNA modification associated with human mitochondrial disease” (Nature Communications, 2018).
